# Laboratory results published in the supplement of paper PMC10266784.
# B1: library; numbered along this chain (parent)
# chain: MAAAAAAAAEQQSSNGPVKKSMREKAVERRSVNKEHNSNFKAGYIPIDEDRLHKTGLRGRKGNLAICVIILLFILAVINLIITLVIWAVIRIGPNGCDSMEFHESGLLRFKQVSDMGVIHPLYKSTVGGRRNENLVITGNNQPIVFQQGTTKLSVENNKTSITSDIGMQFFDPRTQNILFSTDYETHEFHLPSGVKSLNVQKASTERITSNATSDLNIKVDGRAIVRGNEGVFIMGKTIEFHMGGNMELKAENSIILNGSVMVSTTRLPSSSSGDQLGSGDWVRYKLCMCADGTLFKVQVTSQNMGCQISDNPCGNTH
# Variants of: B1
# Assay: SGCB cell-surface expression functional score (HA stain, bin4 vs bin1, normalised to synonymous) (log10 ratio); higher = more cell-surface SGCB (functional)
# In short: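 HEK293 cells stably expressing alpha-, gamma- and delta-sarcoglycan received codon-saturation libraries of HA-tagged, YFP-fused human beta-sarcoglycan by lentiviral transduction at MOI <0.1, performed in duplicate. Cells positive for YFP were sorted after 72 hours and cultured for 5–7 days, then stained on ice with Alexa Fluor 647 anti-HA and fixed. Fixed cells were sorted into four 5% intensity bins and amplicon-sequenced, and the log ratio of highest-bin to lowest-bin variant frequency, as a median over codons and transductions, gives the functional score. Per section, synonymous variants were scaled to mean 0, SD 0.5.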
row,Variant,SGCB cell-surface expression functional score (log10)
1,MAAAAAAAAEQQSSNGPVKKSMREKAVERRSVNKEHNSNFKAGYIPIDEDRLHKTGLRGRKGNLAICVIILLFILAVINLIITLVIWAVIRIGPNGCYSMEFHESGLLRFKQVSDMGVIHPLYKSTVGGRRNENLVITGNNQPIVFQQGTTKLSVENNKTSITSDIGMQFFDPRTQNILFSTDYETHEFHLPSGVKSLNVQKASTERITSNATSDLNIKVDGRAIVRGNEGVFIMGKTIEFHMGGNMELKAENSIILNGSVMVSTTRLPSSSSGDQLGSGDWVRYKLCMCADGTLFKVQVTSQNMGCQISDNPCGNTH [D98Y],-0.66
2,MAAAAAAAAEQQSSNGPVKKSMREKAVERRSVNKEHNSNFKAGYIPIDEDRLHKTGLRGRKGNLAICVIILLFILAVINLIITLVIWAVIRIGPNGCWSMEFHESGLLRFKQVSDMGVIHPLYKSTVGGRRNENLVITGNNQPIVFQQGTTKLSVENNKTSITSDIGMQFFDPRTQNILFSTDYETHEFHLPSGVKSLNVQKASTERITSNATSDLNIKVDGRAIVRGNEGVFIMGKTIEFHMGGNMELKAENSIILNGSVMVSTTRLPSSSSGDQLGSGDWVRYKLCMCADGTLFKVQVTSQNMGCQISDNPCGNTH [D98W],-0.73
3,MAAAAAAAAEQQSSNGPVKKSMREKAVERRSVNKEHNSNFKAGYIPIDEDRLHKTGLRGRKGNLAICVIILLFILAVINLIITLVIWAVIRIGPNGCSSMEFHESGLLRFKQVSDMGVIHPLYKSTVGGRRNENLVITGNNQPIVFQQGTTKLSVENNKTSITSDIGMQFFDPRTQNILFSTDYETHEFHLPSGVKSLNVQKASTERITSNATSDLNIKVDGRAIVRGNEGVFIMGKTIEFHMGGNMELKAENSIILNGSVMVSTTRLPSSSSGDQLGSGDWVRYKLCMCADGTLFKVQVTSQNMGCQISDNPCGNTH [D98S],0.3
4,MAAAAAAAAEQQSSNGPVKKSMREKAVERRSVNKEHNSNFKAGYIPIDEDRLHKTGLRGRKGNLAICVIILLFILAVINLIITLVIWAVIRIGPNGCQSMEFHESGLLRFKQVSDMGVIHPLYKSTVGGRRNENLVITGNNQPIVFQQGTTKLSVENNKTSITSDIGMQFFDPRTQNILFSTDYETHEFHLPSGVKSLNVQKASTERITSNATSDLNIKVDGRAIVRGNEGVFIMGKTIEFHMGGNMELKAENSIILNGSVMVSTTRLPSSSSGDQLGSGDWVRYKLCMCADGTLFKVQVTSQNMGCQISDNPCGNTH [D98Q],-0.02
5,MAAAAAAAAEQQSSNGPVKKSMREKAVERRSVNKEHNSNFKAGYIPIDEDRLHKTGLRGRKGNLAICVIILLFILAVINLIITLVIWAVIRIGPNGCTSMEFHESGLLRFKQVSDMGVIHPLYKSTVGGRRNENLVITGNNQPIVFQQGTTKLSVENNKTSITSDIGMQFFDPRTQNILFSTDYETHEFHLPSGVKSLNVQKASTERITSNATSDLNIKVDGRAIVRGNEGVFIMGKTIEFHMGGNMELKAENSIILNGSVMVSTTRLPSSSSGDQLGSGDWVRYKLCMCADGTLFKVQVTSQNMGCQISDNPCGNTH [D98T],0.06
6,MAAAAAAAAEQQSSNGPVKKSMREKAVERRSVNKEHNSNFKAGYIPIDEDRLHKTGLRGRKGNLAICVIILLFILAVINLIITLVIWAVIRIGPNGCVSMEFHESGLLRFKQVSDMGVIHPLYKSTVGGRRNENLVITGNNQPIVFQQGTTKLSVENNKTSITSDIGMQFFDPRTQNILFSTDYETHEFHLPSGVKSLNVQKASTERITSNATSDLNIKVDGRAIVRGNEGVFIMGKTIEFHMGGNMELKAENSIILNGSVMVSTTRLPSSSSGDQLGSGDWVRYKLCMCADGTLFKVQVTSQNMGCQISDNPCGNTH [D98V],-0.14
7,MAAAAAAAAEQQSSNGPVKKSMREKAVERRSVNKEHNSNFKAGYIPIDEDRLHKTGLRGRKGNLAICVIILLFILAVINLIITLVIWAVIRIGPNGCRSMEFHESGLLRFKQVSDMGVIHPLYKSTVGGRRNENLVITGNNQPIVFQQGTTKLSVENNKTSITSDIGMQFFDPRTQNILFSTDYETHEFHLPSGVKSLNVQKASTERITSNATSDLNIKVDGRAIVRGNEGVFIMGKTIEFHMGGNMELKAENSIILNGSVMVSTTRLPSSSSGDQLGSGDWVRYKLCMCADGTLFKVQVTSQNMGCQISDNPCGNTH [D98R],-0.16
8,MAAAAAAAAEQQSSNGPVKKSMREKAVERRSVNKEHNSNFKAGYIPIDEDRLHKTGLRGRKGNLAICVIILLFILAVINLIITLVIWAVIRIGPNGCDKMEFHESGLLRFKQVSDMGVIHPLYKSTVGGRRNENLVITGNNQPIVFQQGTTKLSVENNKTSITSDIGMQFFDPRTQNILFSTDYETHEFHLPSGVKSLNVQKASTERITSNATSDLNIKVDGRAIVRGNEGVFIMGKTIEFHMGGNMELKAENSIILNGSVMVSTTRLPSSSSGDQLGSGDWVRYKLCMCADGTLFKVQVTSQNMGCQISDNPCGNTH [S99K],-1.57
9,MAAAAAAAAEQQSSNGPVKKSMREKAVERRSVNKEHNSNFKAGYIPIDEDRLHKTGLRGRKGNLAICVIILLFILAVINLIITLVIWAVIRIGPNGCDAMEFHESGLLRFKQVSDMGVIHPLYKSTVGGRRNENLVITGNNQPIVFQQGTTKLSVENNKTSITSDIGMQFFDPRTQNILFSTDYETHEFHLPSGVKSLNVQKASTERITSNATSDLNIKVDGRAIVRGNEGVFIMGKTIEFHMGGNMELKAENSIILNGSVMVSTTRLPSSSSGDQLGSGDWVRYKLCMCADGTLFKVQVTSQNMGCQISDNPCGNTH [S99A],-0.01
10,MAAAAAAAAEQQSSNGPVKKSMREKAVERRSVNKEHNSNFKAGYIPIDEDRLHKTGLRGRKGNLAICVIILLFILAVINLIITLVIWAVIRIGPNGCDGMEFHESGLLRFKQVSDMGVIHPLYKSTVGGRRNENLVITGNNQPIVFQQGTTKLSVENNKTSITSDIGMQFFDPRTQNILFSTDYETHEFHLPSGVKSLNVQKASTERITSNATSDLNIKVDGRAIVRGNEGVFIMGKTIEFHMGGNMELKAENSIILNGSVMVSTTRLPSSSSGDQLGSGDWVRYKLCMCADGTLFKVQVTSQNMGCQISDNPCGNTH [S99G],-0.07
11,MAAAAAAAAEQQSSNGPVKKSMREKAVERRSVNKEHNSNFKAGYIPIDEDRLHKTGLRGRKGNLAICVIILLFILAVINLIITLVIWAVIRIGPNGCDCMEFHESGLLRFKQVSDMGVIHPLYKSTVGGRRNENLVITGNNQPIVFQQGTTKLSVENNKTSITSDIGMQFFDPRTQNILFSTDYETHEFHLPSGVKSLNVQKASTERITSNATSDLNIKVDGRAIVRGNEGVFIMGKTIEFHMGGNMELKAENSIILNGSVMVSTTRLPSSSSGDQLGSGDWVRYKLCMCADGTLFKVQVTSQNMGCQISDNPCGNTH [S99C],-0.72
12,MAAAAAAAAEQQSSNGPVKKSMREKAVERRSVNKEHNSNFKAGYIPIDEDRLHKTGLRGRKGNLAICVIILLFILAVINLIITLVIWAVIRIGPNGCDDMEFHESGLLRFKQVSDMGVIHPLYKSTVGGRRNENLVITGNNQPIVFQQGTTKLSVENNKTSITSDIGMQFFDPRTQNILFSTDYETHEFHLPSGVKSLNVQKASTERITSNATSDLNIKVDGRAIVRGNEGVFIMGKTIEFHMGGNMELKAENSIILNGSVMVSTTRLPSSSSGDQLGSGDWVRYKLCMCADGTLFKVQVTSQNMGCQISDNPCGNTH [S99D],-1.16
13,MAAAAAAAAEQQSSNGPVKKSMREKAVERRSVNKEHNSNFKAGYIPIDEDRLHKTGLRGRKGNLAICVIILLFILAVINLIITLVIWAVIRIGPNGCDEMEFHESGLLRFKQVSDMGVIHPLYKSTVGGRRNENLVITGNNQPIVFQQGTTKLSVENNKTSITSDIGMQFFDPRTQNILFSTDYETHEFHLPSGVKSLNVQKASTERITSNATSDLNIKVDGRAIVRGNEGVFIMGKTIEFHMGGNMELKAENSIILNGSVMVSTTRLPSSSSGDQLGSGDWVRYKLCMCADGTLFKVQVTSQNMGCQISDNPCGNTH [S99E],-1.96
14,MAAAAAAAAEQQSSNGPVKKSMREKAVERRSVNKEHNSNFKAGYIPIDEDRLHKTGLRGRKGNLAICVIILLFILAVINLIITLVIWAVIRIGPNGCDMMEFHESGLLRFKQVSDMGVIHPLYKSTVGGRRNENLVITGNNQPIVFQQGTTKLSVENNKTSITSDIGMQFFDPRTQNILFSTDYETHEFHLPSGVKSLNVQKASTERITSNATSDLNIKVDGRAIVRGNEGVFIMGKTIEFHMGGNMELKAENSIILNGSVMVSTTRLPSSSSGDQLGSGDWVRYKLCMCADGTLFKVQVTSQNMGCQISDNPCGNTH [S99M],0.21
15,MAAAAAAAAEQQSSNGPVKKSMREKAVERRSVNKEHNSNFKAGYIPIDEDRLHKTGLRGRKGNLAICVIILLFILAVINLIITLVIWAVIRIGPNGCDFMEFHESGLLRFKQVSDMGVIHPLYKSTVGGRRNENLVITGNNQPIVFQQGTTKLSVENNKTSITSDIGMQFFDPRTQNILFSTDYETHEFHLPSGVKSLNVQKASTERITSNATSDLNIKVDGRAIVRGNEGVFIMGKTIEFHMGGNMELKAENSIILNGSVMVSTTRLPSSSSGDQLGSGDWVRYKLCMCADGTLFKVQVTSQNMGCQISDNPCGNTH [S99F],0.86
16,MAAAAAAAAEQQSSNGPVKKSMREKAVERRSVNKEHNSNFKAGYIPIDEDRLHKTGLRGRKGNLAICVIILLFILAVINLIITLVIWAVIRIGPNGCDHMEFHESGLLRFKQVSDMGVIHPLYKSTVGGRRNENLVITGNNQPIVFQQGTTKLSVENNKTSITSDIGMQFFDPRTQNILFSTDYETHEFHLPSGVKSLNVQKASTERITSNATSDLNIKVDGRAIVRGNEGVFIMGKTIEFHMGGNMELKAENSIILNGSVMVSTTRLPSSSSGDQLGSGDWVRYKLCMCADGTLFKVQVTSQNMGCQISDNPCGNTH [S99H],-0.65
17,MAAAAAAAAEQQSSNGPVKKSMREKAVERRSVNKEHNSNFKAGYIPIDEDRLHKTGLRGRKGNLAICVIILLFILAVINLIITLVIWAVIRIGPNGCDIMEFHESGLLRFKQVSDMGVIHPLYKSTVGGRRNENLVITGNNQPIVFQQGTTKLSVENNKTSITSDIGMQFFDPRTQNILFSTDYETHEFHLPSGVKSLNVQKASTERITSNATSDLNIKVDGRAIVRGNEGVFIMGKTIEFHMGGNMELKAENSIILNGSVMVSTTRLPSSSSGDQLGSGDWVRYKLCMCADGTLFKVQVTSQNMGCQISDNPCGNTH [S99I],-0.54
18,MAAAAAAAAEQQSSNGPVKKSMREKAVERRSVNKEHNSNFKAGYIPIDEDRLHKTGLRGRKGNLAICVIILLFILAVINLIITLVIWAVIRIGPNGCDNMEFHESGLLRFKQVSDMGVIHPLYKSTVGGRRNENLVITGNNQPIVFQQGTTKLSVENNKTSITSDIGMQFFDPRTQNILFSTDYETHEFHLPSGVKSLNVQKASTERITSNATSDLNIKVDGRAIVRGNEGVFIMGKTIEFHMGGNMELKAENSIILNGSVMVSTTRLPSSSSGDQLGSGDWVRYKLCMCADGTLFKVQVTSQNMGCQISDNPCGNTH [S99N],-0.77
19,MAAAAAAAAEQQSSNGPVKKSMREKAVERRSVNKEHNSNFKAGYIPIDEDRLHKTGLRGRKGNLAICVIILLFILAVINLIITLVIWAVIRIGPNGCDLMEFHESGLLRFKQVSDMGVIHPLYKSTVGGRRNENLVITGNNQPIVFQQGTTKLSVENNKTSITSDIGMQFFDPRTQNILFSTDYETHEFHLPSGVKSLNVQKASTERITSNATSDLNIKVDGRAIVRGNEGVFIMGKTIEFHMGGNMELKAENSIILNGSVMVSTTRLPSSSSGDQLGSGDWVRYKLCMCADGTLFKVQVTSQNMGCQISDNPCGNTH [S99L],0.18
